Patent US20200157223A1 (SHANGHAI JMT BIO TECHNOLOGY, published 2020)

What was measured:
[1] = molecular target: T1, CD47 on the cell surface (A431, Raji, SKBR-3, NCI-H441, NK92MI-CD16a cells) (human, UniProt Q08722 19-323); experiment: cell-based or functional assay
[2] = molecular target: T2, CD47-His (12283-H08H-200, Sino Biological) (human, UniProt Q08722 19-139); experiment: ELISA on coated CD47-His
T2 construct: Bought protein coated on ELISA plates; also called CD47 antigen; human CD47 (protein level); not shown: His tag

[3] = molecular target: T1, CD47 on the cell surface (A431, Raji, …); experiment: flow cytometry on Raji cells
[4] = molecular target: T1, CD47 on the cell surface (A431, Raji, …); experiment: flow cytometry on A431 cells
[5] = molecular target: T1, CD47 on the cell surface (A431, Raji, …); experiment: flow cytometry on SKBR-3 cells
[6] = molecular target: T1, CD47 on the cell surface (A431, Raji, …); experiment: flow cytometry on NCI-H441 cells
[7] = molecular target: T1, CD47 on the cell surface (A431, Raji, …); experiment: flow cytometry on IFN-γ-stimulated NCI-H441 cells
[8] = molecular target: T1, CD47 on the cell surface (A431, Raji, …); experiment: flow cytometry on A431 cells (no CD20)

B1: Anti-EGFR-Fc1-D1-Fc2 (bispecific antibody, human IgG1, kappa)
heavy: not shown
light: EIVLTQSPDFQSVTPKEKVTITCRASQSIGTNIHWYQQKPDQSPKLLIKYASESISGIPSRFSGSGSGTDFTLTINSLEAEDAATYYCQQNNEWPTSFGQGTKLEIKRTVAAPSVFIFPPSDEQLKSGTASVVCLLNNFYPREAKVQWKVDNALQSGNSQESVTEQDSKDSTYSLSSTLTLSKADYEKHKVYACEVTHQGLSSPVTKSFNRGEC
chain: not shown
notes: Knobs-into-holes heterodimer; left arm is the JMT101 half antibody; also called Anti-EGFR-Fc1-D1-Fe2
[1]
  toxic side effects caused by NK cells (ADCC on NK92MI-CD16a cells), reduction against the D1^m proteins: ≥ 1000 fold
[2]
  EC50: 0.0939 µg/mL

B2: Anti-EGFR-Fc1-D1-D2-Fc2 (bispecific antibody, human IgG1, kappa)
heavy: not shown
light: EIVLTQSPDFQSVTPKEKVTITCRASQSIGTNIHWYQQKPDQSPKLLIKYASESISGIPSRFSGSGSGTDFTLTINSLEAEDAATYYCQQNNEWPTSFGQGTKLEIKRTVAAPSVFIFPPSDEQLKSGTASVVCLLNNFYPREAKVQWKVDNALQSGNSQESVTEQDSKDSTYSLSSTLTLSKADYEKHKVYACEVTHQGLSSPVTKSFNRGEC
chain: not shown
[1]
  toxic side effects caused by NK cells (ADCC on NK92MI-CD16a cells), reduction against the D1^m proteins: ≥ 1000 fold

B3: Anti-EGFR-Fc1-D1-D2-D3-Fc2 (bispecific antibody, human IgG1, kappa)
heavy: not shown
light: EIVLTQSPDFQSVTPKEKVTITCRASQSIGTNIHWYQQKPDQSPKLLIKYASESISGIPSRFSGSGSGTDFTLTINSLEAEDAATYYCQQNNEWPTSFGQGTKLEIKRTVAAPSVFIFPPSDEQLKSGTASVVCLLNNFYPREAKVQWKVDNALQSGNSQESVTEQDSKDSTYSLSSTLTLSKADYEKHKVYACEVTHQGLSSPVTKSFNRGEC
chain: not shown
[1]
  toxic side effects caused by NK cells (ADCC on NK92MI-CD16a cells), reduction against the D1^m proteins: ≥ 1000 fold

B4: Obi-Fc1-D1-Fc2 (bispecific antibody)
heavy: not shown
light: DIVMTQTPLSLPVTPGEPASISCRSSKSLLHSNGITYLYWYLQKPGQSPQLLIYQMSNLVSGVPDRFSGSGSGTDFTLKISRVEAEDVGVYYCAQNLELPYTFGGGTKVEIKRTVAAPSVFIFPPSDEQLKSGTASVVCLLNNFYPREAKVQWKVDNALQSGNSQESVTEQDSKDSTYSLSSTLTLSKADYEKHKVYACEVTHQGLSSPVTKSFNRGEC
chain: not shown
[1]
  toxic side effects caused by NK cells (ADCC on NK92MI-CD16a cells), reduction against the D1^m proteins: ≥ 1000 fold

B5: Obi-Fc1-D1-D2-Fc2 (bispecific antibody)
heavy: not shown
light: DIVMTQTPLSLPVTPGEPASISCRSSKSLLHSNGITYLYWYLQKPGQSPQLLIYQMSNLVSGVPDRFSGSGSGTDFTLKISRVEAEDVGVYYCAQNLELPYTFGGGTKVEIKRTVAAPSVFIFPPSDEQLKSGTASVVCLLNNFYPREAKVQWKVDNALQSGNSQESVTEQDSKDSTYSLSSTLTLSKADYEKHKVYACEVTHQGLSSPVTKSFNRGEC
chain: not shown
[1]
  toxic side effects caused by NK cells (ADCC on NK92MI-CD16a cells), reduction against the D1^m proteins: ≥ 1000 fold

B6: Obi-Fc1-D1-D2-D3-Fc2 (bispecific antibody)
heavy: not shown
light: DIVMTQTPLSLPVTPGEPASISCRSSKSLLHSNGITYLYWYLQKPGQSPQLLIYQMSNLVSGVPDRFSGSGSGTDFTLKISRVEAEDVGVYYCAQNLELPYTFGGGTKVEIKRTVAAPSVFIFPPSDEQLKSGTASVVCLLNNFYPREAKVQWKVDNALQSGNSQESVTEQDSKDSTYSLSSTLTLSKADYEKHKVYACEVTHQGLSSPVTKSFNRGEC
chain: not shown
[1]
  toxic side effects caused by NK cells (ADCC on NK92MI-CD16a cells), reduction against the D1^m proteins: ≥ 1000 fold

B7: Anti-CD47 mAb (Hu5F9-G4) (antibody, human IgG4 S228P, kappa)
heavy: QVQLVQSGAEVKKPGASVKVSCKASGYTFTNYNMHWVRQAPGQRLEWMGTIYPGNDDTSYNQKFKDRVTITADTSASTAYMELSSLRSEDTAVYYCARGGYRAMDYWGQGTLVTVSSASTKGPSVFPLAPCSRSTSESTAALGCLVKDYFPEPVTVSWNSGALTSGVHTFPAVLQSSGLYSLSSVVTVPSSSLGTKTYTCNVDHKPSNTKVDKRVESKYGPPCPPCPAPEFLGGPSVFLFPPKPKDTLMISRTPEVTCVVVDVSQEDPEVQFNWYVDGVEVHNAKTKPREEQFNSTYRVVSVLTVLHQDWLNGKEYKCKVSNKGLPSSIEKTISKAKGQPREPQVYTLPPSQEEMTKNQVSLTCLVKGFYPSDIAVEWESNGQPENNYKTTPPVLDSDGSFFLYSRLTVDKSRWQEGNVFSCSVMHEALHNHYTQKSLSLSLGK
light: DIVMTQSPLSLPVTPGEPASISCRSSQSIVYSNGNTYLGWYLQKPGQSPQLLIYKVSNRFSGVPDRFSGSGSGTDFTLKISRVEAEDVGVYYCFQGSHVPYTFGQGTKLEIKRTVAAPSVFIFPPSDEQLKSGTASVVCLLNNFYPREAKVQWKVDNALQSGNSQESVTEQDSKDSTYSLSSTLTLSKADYEKHKVYACEVTHQGLSSPVTKSFNRGEC
notes: also called anti-CD47 antibody; Hu5F9-64
[2]
  EC50: 0.00544 µg/mL
[3]
  EC50: 0.258 nM
[4]
  EC50: 0.865 nM
[5]
  EC50: 0.456 nM
[6]
  EC50: 0.286 nM
  Maximum average fluorescence intensity: 120000
[7]
  EC50: 0.387 nM

B8: Anti-EGFR-Fc1-D1^m-Fc2 (bispecific antibody, human IgG1, kappa)
heavy: not shown
light: EIVLTQSPDFQSVTPKEKVTITCRASQSIGTNIHWYQQKPDQSPKLLIKYASESISGIPSRFSGSGSGTDFTLTINSLEAEDAATYYCQQNNEWPTSFGQGTKLEIKRTVAAPSVFIFPPSDEQLKSGTASVVCLLNNFYPREAKVQWKVDNALQSGNSQESVTEQDSKDSTYSLSSTLTLSKADYEKHKVYACEVTHQGLSSPVTKSFNRGEC
chain: not shown
notes: Knobs-into-holes heterodimer
[2]
  binding result: binds

B9: Anti-EGFR-Fc1-D1^m-D2-Fc2 (bispecific antibody, human IgG1, kappa)
heavy: not shown
light: EIVLTQSPDFQSVTPKEKVTITCRASQSIGTNIHWYQQKPDQSPKLLIKYASESISGIPSRFSGSGSGTDFTLTINSLEAEDAATYYCQQNNEWPTSFGQGTKLEIKRTVAAPSVFIFPPSDEQLKSGTASVVCLLNNFYPREAKVQWKVDNALQSGNSQESVTEQDSKDSTYSLSSTLTLSKADYEKHKVYACEVTHQGLSSPVTKSFNRGEC
chain: not shown
notes: Knobs-into-holes heterodimer
[2]
  binding result: binds

B10: Anti-CD20 mAb (Ofatumumab) (antibody, human IgG1, kappa)
heavy: not shown
light: not shown
notes: also called Anti-CD20 (Ofatumumab)
[2]
  binding result: no binding
[6]
  Maximum average fluorescence intensity: 3500
[8]
  binding result: no binding

B11: Anti-EGFR mAb (JMT101) (antibody, human IgG1, kappa, V domains shown)
VH: QVQLQESGPGLVKPSETLSLTCTVSGFSLSNYDVHWVRQAPGKGLEWLGVIWSGGNTDYNTPFTSRLTISVDTSKNQFSLKLSSVTAADTAVYYCARALDYYDYEFAYWGQGTLVTVSS
VL: EIVLTQSPDFQSVTPKEKVTITCRASQSIGTNIHWYQQKPDQSPKLLIKYASESISGIPSRFSGSGSGTDFTLTINSLEAEDAATYYCQQNNEWPTSFGQGTKLEIKR
notes: Humanized anti-EGFR monoclonal antibody
[2]
  binding result: no binding

B12: Anti-CD20 mAb (Obinutuzumab) (antibody, human IgG1, kappa)
heavy: not shown
light: DIVMTQTPLSLPVTPGEPASISCRSSKSLLHSNGITYLYWYLQKPGQSPQLLIYQMSNLVSGVPDRFSGSGSGTDFTLKISRVEAEDVGVYYCAQNLELPYTFGGGTKVEIKRTVAAPSVFIFPPSDEQLKSGTASVVCLLNNFYPREAKVQWKVDNALQSGNSQESVTEQDSKDSTYSLSSTLTLSKADYEKHKVYACEVTHQGLSSPVTKSFNRGEC
notes: also called Anti-CD20 (Obinutuzumab)
[8]
  binding result: no binding
